Experimental findings from US20250066483A1 are described below.

The term Kd denotes the equilibrium constant for the complex coming apart. The term koff denotes the first-order rate constant of dissociation. Broadly, the kon is the second-order rate constant of association. High values mean faster complex formation, low ones slower complex formation.

The experiment has as its target bovine PD-1-His (bovine). Nature of the experiment: SPR (Biacore X100), bovine PD-1-His immobilised on a CM5 chip, antibody as analyte, single kinetics, 3 repeats. For orientation: SPR reads the build-up and loss of mass on a sensor chip optically.

B1: rat anti-bovine PD-1 monoclonal antibody 5D2 (antibody, V domains shown)
VH: QVQLKETGPGLVQPTQTLSITCTVSGFSLTSYYIQWVRQTPGKGLEWMGFIRSGGSTEYNSEFKSRLSINRDTSKNQVFLKMNSLKTEDTGVYYCARTSSGYEGGFDYWGQGVMVTVSS
VL: DVVLTQTPVSLSVTLGDQASISCRSSQSLEYSDGYTYLEWYLQKPGQSPQLLIYGVSNRFSGVPDRFIGSGSGTDFTLKISRVEPEDLGVYYCFQATHDPDTFGAGTKLELK
Molecule B1 showed an equilibrium dissociation constant (Kd) of 12.2 nM, a koff of 0.000215 s⁻¹ and a kon of 18400 M⁻¹ s⁻¹.
